Measurements as given in patent US20250136687A1 (SHANDONG SIMCERE BIOPHARMACEUTICAL, published 2025).
Where two headings read alike, the source gives them in different places.

Tests used:
[1] = molecular target: T1, monkey CD3ε protein (monkey, UniProt Q95LI5 22-117, limits assumed); test: ELISA, coated antigen
T1 sequence (looked up): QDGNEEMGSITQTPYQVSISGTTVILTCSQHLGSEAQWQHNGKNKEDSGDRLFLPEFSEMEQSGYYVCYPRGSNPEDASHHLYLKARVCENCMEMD
Description: (§1) To detect the binding activity of the humanized antibodies to CD3 protein, CD3 protein was diluted with PBS to the final concentration of […], then added to a 96-well ELISA plate at 50 μL/well, and the plate was sealed with a plastic film, and incubated overnight at 4° C. On the next day, the plate was washed 2 times with PBS, and a blocking solution [PBS+2% (v/v) BSA] was added for blocking at room temperature for 2 h. The blocking solution was poured off, and the antibody (initial concentration of 100 nM, and gradient dilution at 1:10) or a negative control antibody was added at 50 µl/well. After incubation at 37° C. for 2 h, the plate was washed 3 times with PBS. […] TMB substrate was added at 50 μl/well, and incubated at room temperature for 10 min, and then a stop solution (1.0 N HCl) was added at 50 μl/well. The OD450 nm values were read by an ELISA microplate reader (Multimode Plate Reader, EnSight, purchased from Perkin Elmer).
(§2) To detect the binding activity of the humanized antibodies to monkey CD3 protein, CD3 protein was diluted with PBS to the final concentration of […], and then added to a 96-well ELISA plate at 50 μl/well.

[2] = molecular target: T2, monkey CD3ε/δ-His (monkey, UniProt Q95LI5 22-117; Q95LI8 22-105); test: ELISA, coated antigen
T2 construct: Bought recombinant heterodimer with His tag
Description: as §1, §2

[3] = molecular target: T3, cynomolgus monkey CD3 on the surface of expanded monkey T cells (cynomolgus monkey, UniProt Q95LI5 22-198; Q95LI8 22-171; Q95LI7 23-181); test: FACS, expanded monkey T cells
T3 construct: whole, on cells; Endogenous CD3 within the TCR-CD3 complex on T cells expanded from cynomolgus monkey PBMC
Description: (§3) The binding of the chimeric antibodies to CD3 on the cell surface was analyzed by detecting the binding of the antibodies to Jurkat cells and human T cells. Suspension cells Jurkat cells were scale-up cultured in T-75 cell culture flasks to the logarithmic growth phase, the supernatant of the medium was discarded by centrifugation, and the cell pellet was washed 2 times with PBS for later use. The expanded human T cells were washed 2 times with PBS for later use. After counting the cells in the previous step, the cell pellet was resuspended with [PBS+2% (w/w) BSA] blocking solution to 4×10⁶ cells/ml, and added to a 96-well FACS reaction plate at 50 μl/well, and then the chimeric antibody to be tested was added at 50 μl/well, and incubated at 4° C. for 1 h. The cells were centrifuged and washed 3 times with a PBS buffer. […] The cells were centrifuged and washed 5 times with PBS, and FACS (FACS Canto™, purchased from BD Company) was used for detection and result analysis. Data analysis was performed by software (CellQuest) to obtain the mean fluorescence […] (MFI) of the cells. And then software (GraphPad Prism8) was used for analysis, data fitting, and EC50 value calculation. The same method was used to simultaneously detect the binding of the chimeric antibodies to endogenous CD3 negative cells MOLT4 cells.
The expanded monkey T cells were collected, and FACS detection and data analysis were performed according to the method in Example 5.1.

[4] = molecular target: T4, human CD3 on the cell surface (Jurkat cells, expanded human T cells, Jurkat-Lucia NFAT cells, human PBMC) (human, UniProt P07766 23-207; P04234 22-171; P09693 23-182); test: FACS, expanded human T cells
T4 construct: whole, on cells; Endogenous CD3 within the TCR-CD3 complex on cells (also zeta chains and TCR); the cell type is named under assay
Description: as §3
The expanded human PBMC cells were collected, and FACS detection and data analysis were performed according to the method in Example 5.1.

[5] = molecular target: T5, recombinant human CD3ε-ECD His protein (human, UniProt P07766 23-126); test: ELISA, coated antigen
T5 construct: extracellular domain; also called human CD3ε-His; CD3ε antigen protein; not shown: His tag
Description: as §1

[6] = molecular target: T6, human CD3ε/δ-His (human, UniProt P07766 23-126; P04234 22-105); test: ELISA, coated antigen
T6 construct: Bought recombinant heterodimer with His tag; also called human CD3ε/δ protein
Description: as §1

[7] = molecular target: T5, recombinant human CD3ε-ECD His protein; test: SPR, antibody captured on Protein A chip
Description: (§4) Running buffer was HBS-EP+(10 mM HEPES, 150 mM NaCl, 3 mM EDTA, 0.05% surfactant P20) (GE Healthcare; BR-1006-69). The flow-through cell was set to 25° C. The sample block was set to 16° C. Both were pretreated with the running buffer. In each cycle, an antibody to be detected was first captured with a Protein A chip, and then a single concentration of CD3ε antigen protein was injected. The binding and dissociation processes of the antibody and the antigen protein were recorded, and finally Glycine pH 1.5 (GE Healthcare; BR-1003-54) was used to complete chip regeneration. The binding was measured by injecting different concentrations of recombinant human CD3ε proteins in a solution for 240 s with a flow rate of 30 μL/min. The concentration started from 200 nM (see the detailed results for the actual concentration in the test) and was diluted at 1:1, making a total of 5 concentrations. The dissociation phase was monitored for up to 600 s and was triggered by switching from sample solution to running buffer. The surface was regenerated by washing with a 10 mM glycine solution (pH 1.5) for 30 s at a flow rate of 30 μL/min. Bulk refractive index difference was corrected by subtracting the response obtained from the goat anti-human Fc surface, and the blank injection was subtracted at the same time (=double reference). For calculation of apparent KD value and other kinetic parameters, Langmuir 1:1 model was used.

[8] = molecular target: T6, human CD3ε/δ-His; test: SPR, antibody captured on Protein A chip
Description: as §4

[9] = molecular target: T3, cynomolgus monkey CD3 on the surface of …; test: FACS, expanded monkey T cells; remark: listed apart in the source
Description: as §3
FACS detection and data analysis were performed on the cryopreserved monkey T cells of Example 2.4 according to the method in Example 5.1.

[10] = molecular target: T4, human CD3 on the cell surface (Jurkat …); test: FACS, Jurkat cells
Description: as §3

[11] = molecular target: T4, human CD3 on the cell surface (Jurkat …); test: FACS, expanded human T cells; remark: listed apart in the source
Description: as §3

[12] = molecular target: T4, human CD3 on the cell surface (Jurkat …); test: cell-based or functional assay
[13] = molecular target: T5, recombinant human CD3ε-ECD His protein; test: SPR (Biacore), antibody captured on Protein A chip
Description: Sample buffer and running buffer were HBS-EP+(10 mM HEPES, 150 mM NaCl, 3 mM EDTA, 0.05% surfactant P20) (GE Healthcare; BR-1006-69). The flow-through cell was set to 25° C. The sample block was set to 16° C. Both were pretreated with the running buffer. In each cycle, the antibody to be detected was first captured with a Protein A chip, and then a single concentration of CD3ε antigen protein (purchased from Sino Biological, Inc. (China), catalog number: 10977-H08H) was injected. The binding and dissociation processes of the antibody and the antigen protein were recorded, and finally a glycine solution (pH 1.5, GE Healthcare; BR-1003-54) was used to complete chip regeneration. The binding was measured by injecting different concentrations of recombinant human CD3ε-ECD His proteins in a solution for 240 s with a flow rate of 30 μL/min. The concentration started from 200 nM (see the detailed results for the actual concentration in the test) and was diluted at 1:1, making a total of 5 concentrations. The dissociation phase was monitored for up to 600 s and was triggered by switching from sample solution to running buffer. The surface was regenerated by washing with a 10 mM glycine solution (pH 1.5) for 30 s at a flow rate of 30 μL/min. Bulk refractive index difference was corrected by subtracting the response obtained from the goat anti-human Fc surface. Blank injection was also subtracted (=double reference). For calculation of apparent KD and other kinetic parameters, Langmuir 1:1 model was used.

T5 sequence (P07766 23-126): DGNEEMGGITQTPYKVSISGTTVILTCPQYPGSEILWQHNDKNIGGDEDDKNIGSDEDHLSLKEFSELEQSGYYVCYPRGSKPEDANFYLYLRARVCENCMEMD
T6 sequence (P07766 23-126, stated change not applied, form in doubt, chain 1 of 2): as the sequence (P07766 23-126) above
T6 sequence (P04234 22-105, stated change not applied, form in doubt, chain 2 of 2): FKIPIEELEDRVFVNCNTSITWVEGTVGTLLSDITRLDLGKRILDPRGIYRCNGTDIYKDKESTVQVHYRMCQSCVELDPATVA
T3 sequence (Q95LI5 22-198, chain 1 of 3): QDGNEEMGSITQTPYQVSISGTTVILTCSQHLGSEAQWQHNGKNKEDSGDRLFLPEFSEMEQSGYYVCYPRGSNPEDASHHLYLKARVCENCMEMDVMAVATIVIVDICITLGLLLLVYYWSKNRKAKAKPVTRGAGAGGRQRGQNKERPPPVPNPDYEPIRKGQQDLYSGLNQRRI
T3 sequence (Q95LI8 22-171, chain 2 of 3): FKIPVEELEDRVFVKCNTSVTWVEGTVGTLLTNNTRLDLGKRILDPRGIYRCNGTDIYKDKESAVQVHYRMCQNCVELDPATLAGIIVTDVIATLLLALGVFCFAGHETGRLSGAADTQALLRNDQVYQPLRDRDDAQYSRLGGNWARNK
T3 sequence (Q95LI7 23-181, chain 3 of 3): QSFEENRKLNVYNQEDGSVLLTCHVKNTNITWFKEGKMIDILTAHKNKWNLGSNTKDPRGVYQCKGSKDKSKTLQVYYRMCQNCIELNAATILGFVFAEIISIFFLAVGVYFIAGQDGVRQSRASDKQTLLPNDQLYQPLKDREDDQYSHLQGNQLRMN
T2 sequence (Q95LI8 22-105, stated change not applied, form in doubt, chain 2 of 2, one chain of several): as the sequence (P04234 22-105, stated change not applied, form in doubt, chain 2 of 2) above, with I5V, N15K, I20V, S32T, D33N, I34N, T64A, S74N, V83L counted along it
T4 sequence (P07766 23-207, chain 1 of 3): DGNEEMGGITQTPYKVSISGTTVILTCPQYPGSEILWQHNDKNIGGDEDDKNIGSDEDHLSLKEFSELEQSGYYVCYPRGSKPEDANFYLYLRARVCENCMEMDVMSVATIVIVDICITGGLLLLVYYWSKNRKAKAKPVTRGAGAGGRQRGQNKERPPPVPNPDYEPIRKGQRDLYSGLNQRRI
T4 sequence (P04234 22-171, chain 2 of 3): as the sequence (Q95LI8 22-171, chain 2 of 3) above, with V5I, K15N, V20I, T32S, N33D, N34I, A64T, N74S, L83V, R141H counted along it
T4 sequence (P09693 23-182, chain 3 of 3): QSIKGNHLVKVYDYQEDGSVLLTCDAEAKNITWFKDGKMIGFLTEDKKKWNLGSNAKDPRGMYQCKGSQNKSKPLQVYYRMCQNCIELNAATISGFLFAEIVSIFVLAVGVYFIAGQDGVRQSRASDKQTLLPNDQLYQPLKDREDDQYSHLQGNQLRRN

B1: 5-40.21-H3-L1 humanized antibody (antibody, human IgG1, kappa, V domains shown)
VH: EVQLVQSGAEVKKPGASVKVSCKASGYTFTSYWMHWVRQAPGQGLEWMGNTYPGSGSTNYDEKFKSRVTITVDSSASTAYMELSSLRSEDTAVYYCTRDRYGVYYFDYWGQGTTVTVSS
VL: DIVMTQSPDSLAVSLGERATINCKSSQSLLNSRTRKNYLAWYQQKPGQSPKLLIYWASTRESGVPDRFSGSGSGTDFTLTISSLQAEDVAVYYCTQSYNLRTFGGGTKVEIKR
EC50 [1]: 0.000467 nM
max-OD450 [1]: 2.84 OD450
EC50 [2]: 0.00456 nM
max-OD450 [2]: 3.16 OD450
EC50 [3]: 0.73 nM
max_MFI [3]: 17800 MFI
EC50 [4]: 1.65 nM
max_MFI [4]: 18000 MFI
EC50 [5]: 0.13 nM
max-OD450 [5]: 1.53 OD450
EC50 [6]: 0.28 nM
max-OD450 [6]: 3.15 OD450
Kd [7]: 1.87 nM
koff [7]: 0.000485 s⁻¹
kon [7]: 260000 M⁻¹ s⁻¹
Kd [8]: 115 nM
koff [8]: 0.0184 s⁻¹
kon [8]: 161000 M⁻¹ s⁻¹

B2: 1-22.6-1-H2a-L2a humanized antibody (antibody, human IgG1, kappa, V domains shown)
VH: EVQLVQSGSELKKPGASVKVSCKTSGYTFTSYGMSWVRQAPGQGLEWMGWINTYSGVPTYAQDFKGRFVFSLDTSVSTAYLQISSLKAEDTAVYYCARLKNNPFVWGQGTTVTVSS
VL: DIVMTQSPDSLAVSLGERATINCRSSQLILHSSGNTYLEWYQQKPGQSPKLLIYKVSNRFSGVPDRFSGSGSGTDFTLTISSLQAEDVAVYYCFQGSHFPWTFGGGTKVEIKR
notes: also called 1-22.6-H2a-L2a
EC50 [1]: 0.000106 nM
max-OD450 [1]: 3.09 OD450
EC50 [2]: 0.0124 nM
max-OD450 [2]: 3.23 OD450
EC50 [3]: 6.92 nM
max_MFI [3]: 12300 MFI
EC50 [4]: 11 nM
max_MFI [4]: 15900 MFI
EC50 [5]: 0.1 nM
max-OD450 [5]: 1.49 OD450
EC50 [6]: 0.45 nM
max-OD450 [6]: 3.29 OD450
Kd [7]: 3.64 nM
koff [7]: 0.000305 s⁻¹
kon [7]: 83600 M⁻¹ s⁻¹
Kd [8]: 113 nM
koff [8]: 0.0134 s⁻¹
kon [8]: 119000 M⁻¹ s⁻¹

B3: 5-7.13 human-murine chimeric antibody (antibody, human IgG1, kappa, V domains shown)
VH: QVQLQQPGTELVKPGASVKLSCKASGYTFTSYWVHWVKQRPGQGLEWIGNINPSDGVTNYNEKFKSRATLTVDKSSSTAYMQLSSLTSEDSAVYYCTRDAYGQYYFDDWGQGTTLTVSS
VL: DIVMSQSPSSLVVSAGEKVTMSCKSSQSLLNSRTRKNYLAWYQQKPGQSPKLLIYWASVRDSGVPDRFTGSGSGTDFTLTISNVQAEDLAVYYCIQSYYLRTFGGGTILEIKR
notes: Human IgG1 chimera
EC50 [9]: 0.09 nM
MFI_Max [9]: 26500 MFI
EC50 [10]: 0.06 nM
MFI_Max [10]: 32200 MFI
EC50 [11]: 0.1 nM
MFI_Max [11]: 15900 MFI
EC50 (nM), luciferase reporter, Jurkat-Lucia NFAT cells [12]: 0.7 nM
Maximum response value (RLU) [12]: 55400 RLU
Kd [13]: 0.345 nM
koff [13]: 0.00027 s⁻¹
kon [13]: 785000 M⁻¹ s⁻¹

B4: 5-40.21 human-murine chimeric antibody (antibody, human IgG1, kappa, V domains shown)
VH: QVQLQQPGSELVRPGASVKLSCKASGYTFTSYWMHWVKQRPGQGLEWIGNTYPGSGSTNYDEKFKSKATLTVDSSSSTAYMQLSSLTSEDSAVYYCTRDRYGVYYFDYWGQGTTLTVSS
VL: DIVMSQSPSSLAVSAGEKVTMSCKSSQSLLNSRTRKNYLAWYQQKPGQSPKLLIYWASTRESGVPDRFSGSGSGTDFTLTISSVQAEDLAVYYCTQSYNLRTFGGGTKLEIKR
notes: Human IgG1 chimera
EC50 [9]: 1.09 nM
MFI_Max [9]: 24400 MFI
EC50 [10]: 0.44 nM
MFI_Max [10]: 26700 MFI
EC50 [11]: 0.99 nM
MFI_Max [11]: 11400 MFI
EC50 (nM), luciferase reporter, Jurkat-Lucia NFAT cells [12]: 4.79 nM
Maximum response value (RLU) [12]: 46200 RLU
Kd [13]: 0.553 nM
koff [13]: 0.000379 s⁻¹
kon [13]: 686000 M⁻¹ s⁻¹

B5: 6-44.5 human-murine chimeric antibody (antibody, human IgG1, kappa, V domains shown)
VH: EVQLQQSGPELVKPGASVKMSCKASGHTFTSHIMHWVKQKPGQGLEWIGYINPNNDRTEYSEKFKGKATLTSDKSSSTAYMELSSLTSEDSAVYYCAGEAYYSNSLYAMDYWGQGTSVTVSS
VL: DIVMSQSPSSLAVSAGEKVTMSCKSSQSLFNSRTRKNYLAWYQQKPGQSPELLIYWASTRESGVPVRFTGSGSGTDFTLTISSVQAEDLAVYYCKQSYYLRTFGGGTKLEVKR
notes: Human IgG1 chimera
EC50 [9]: 0.42 nM
MFI_Max [9]: 27100 MFI
EC50 [10]: 0.15 nM
MFI_Max [10]: 31700 MFI
EC50 [11]: 0.62 nM
MFI_Max [11]: 13300 MFI
EC50 (nM), luciferase reporter, Jurkat-Lucia NFAT cells [12]: 1.84 nM
Maximum response value (RLU) [12]: 33600 RLU
Kd [13]: 0.445 nM
koff [13]: 0.000259 s⁻¹
kon [13]: 581000 M⁻¹ s⁻¹
